Experimental data: US20260098059A1 (ENDOMET BIOSCIENCES, published 2026)
Values joined by “and” are separate entries in the source; they are usually repeats but may differ in a detail not shown here. Identical values can stand only once. Bridges are numbered along the chain shown (N, C = ends). Where no end group is shown, it is not given here. [ ]: non-standard residue; d: D form. The star is where a group is joined. Palmitoyl = CCCCCCCCCCCCCCCC(=O)*; Chg = N[C@H](C(=O)O)C1CCCCC1; NMeA = CN[C@@H](C)C(=O)O

T1: β-catenin (UniProt P35222 134-665, limits assumed, biotinylated in the SPR and plate assays)
T1 sequence (looked up): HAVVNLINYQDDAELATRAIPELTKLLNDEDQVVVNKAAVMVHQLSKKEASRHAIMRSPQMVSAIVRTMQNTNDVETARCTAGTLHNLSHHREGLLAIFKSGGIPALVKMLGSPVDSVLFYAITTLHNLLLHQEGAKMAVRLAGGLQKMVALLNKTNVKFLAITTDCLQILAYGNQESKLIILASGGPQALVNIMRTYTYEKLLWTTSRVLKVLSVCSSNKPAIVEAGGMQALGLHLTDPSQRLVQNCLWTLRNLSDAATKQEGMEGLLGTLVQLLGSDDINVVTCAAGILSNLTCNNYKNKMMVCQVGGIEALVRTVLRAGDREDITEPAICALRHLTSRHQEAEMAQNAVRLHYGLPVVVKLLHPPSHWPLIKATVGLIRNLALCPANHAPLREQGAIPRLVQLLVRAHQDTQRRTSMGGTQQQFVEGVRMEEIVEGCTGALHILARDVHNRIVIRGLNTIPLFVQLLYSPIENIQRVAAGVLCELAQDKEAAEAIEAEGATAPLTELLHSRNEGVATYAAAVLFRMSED


Target: T1, β-catenin
Assay: cell-based or functional assay

Wnt Reporter EC50	Binder
> 30 µM	PQKILDEHVQRVMK-NH2 (bridge 3-7; not fully specified (N-terminus); printed as H23C11C(O)-PQK*ILDE*HVQRVMK-NH2; also: K3* and E7* marked (linkage not given here)) [SEQ ID NO: 486]
> 15 µM and ≤ 22.5 µM	PQKILDEH[Chg]QRVMK-NH2 (lactam 3-7; not fully specified (N-terminus); printed as H23C11C(O)-PQK*ILDE*H-Chg-QRVMK-NH2) [SEQ ID NO: 489]
> 7.5 µM and ≤ 15 µM	Ac-W[NMeA]QKILDEH[Chg]EAVWK (lactam 11-15, 4-8 (inferred)) [SEQ ID NO: 476]
≤ 7.5 µM	Palmitoyl-PQKILDEHVQRVMK-NH2 (bridge 3-7; also: K3* and E7* marked (linkage not given here)) [SEQ ID NO: 487]
≤ 7.5 µM	Ac-PQKILDEH[Chg]QRVMK-NH2 (lactam 3-7) [SEQ ID NO: 488]
> 15 µM and ≤ 22.5 µM	H-MSRMWFLISFWTG-OH [SEQ ID NO: 44]
> 7.5 µM and ≤ 15 µM	H-MSRMWILISFWG-OH [SEQ ID NO: 51]
≤ 7.5 µM	H-MSRMWFLICFWG-OH [SEQ ID NO: 46]
≤ 7.5 µM	WXQKILNDHGQRVW (HELM PEPTIDE1{[CCCCCCCCCCCC(=O)[*:2]].W.[Aib].Q.K.I.L.N.D.H.[O=C([C@@H](N[*:1])C1CCCCC1)[*:2]].Q.R.V.W.[am]}$PEPTIDE1,PEPTIDE1,5:R3-9:R3$$$V2.0; SMILES CCCCCCCCCCCC(=O)N[C@@H](Cc1c[nH]c2ccccc12)C(=O)NC(C)(C)C(=O)N[C@@H](CCC(N)=O)C(=O)N[C@H]1CCCCNC(=O)C[C@@H](C(=O)N[C@@H](Cc2c[nH]cn2)C(=O)N[C@H](C(=O)N[C@@H](CCC(N)=O)C(=O)N[C@@H](CCCNC(=N)N)C(=O)N[C@H](C(=O)N[C@@H](Cc2c[nH]c3ccccc23)C(N)=O)C(C)C)C2CCCCC2)NC(=O)[C@H](CC(N)=O)NC(=O)[C@H](CC(C)C)NC(=O)[C@H]([C@@H](C)CC)NC1=O) [SEQ ID NO: 456]
> 30 µM	Ac-PQKILDEHVQRVMK-NH2 (bridge 3-7; also: K3* and E7* marked (linkage not given here)) [SEQ ID NO: 485]
≤ 7.5 µM	W[NMeA]QKILDEH[Chg]EAVWK (lactam 11-15, 4-8 (inferred); not fully specified (N-terminus); printed as H23C11C(O)-NH-W-NMeA-QK*ILDE*H-Chg-E*AVWK*) [SEQ ID NO: 477]
≤ 7.5 µM	Palmitoyl-PQKILDEH[Chg]QRVMK-NH2 (bridge 3-7; also: K3* and E7* marked (linkage not given here)) [SEQ ID NO: 490]
≤ 7.5 µM	H-MWFLISFWRG-OH [SEQ ID NO: 49]
